Molecular target: T1, recombinant human HER4 ECD, biotinylated (human, UniProt Q15303 26-651, biotinylated (site not stated))
T1 construct: human epidermal growth factor receptor family member 4 (HER4, ErbB4), extracellular domain; Captured on streptavidin biosensors by its biotin; also called ErbB4; source: in-house purified recombinant
T1 sequence (looked up): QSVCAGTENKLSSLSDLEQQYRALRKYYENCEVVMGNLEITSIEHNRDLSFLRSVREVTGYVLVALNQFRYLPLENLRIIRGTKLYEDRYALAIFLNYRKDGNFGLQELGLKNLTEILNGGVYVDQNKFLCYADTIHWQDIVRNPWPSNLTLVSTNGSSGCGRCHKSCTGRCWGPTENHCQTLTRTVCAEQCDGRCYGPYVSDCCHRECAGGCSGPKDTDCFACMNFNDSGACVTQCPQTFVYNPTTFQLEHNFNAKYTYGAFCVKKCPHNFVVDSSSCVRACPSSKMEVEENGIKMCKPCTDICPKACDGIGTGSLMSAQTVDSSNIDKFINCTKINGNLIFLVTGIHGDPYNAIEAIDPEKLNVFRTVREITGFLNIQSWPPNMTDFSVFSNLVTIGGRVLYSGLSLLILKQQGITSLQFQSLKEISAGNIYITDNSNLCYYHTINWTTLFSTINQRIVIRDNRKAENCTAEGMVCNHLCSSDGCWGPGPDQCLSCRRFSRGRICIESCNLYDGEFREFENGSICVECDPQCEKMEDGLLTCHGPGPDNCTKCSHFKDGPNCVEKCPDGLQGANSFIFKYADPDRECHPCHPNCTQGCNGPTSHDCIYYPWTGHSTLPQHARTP
Test: BLI; Octet 384; biotinylated HER4 or HER3 at 1 μg/mL captured on streptavidin biosensors; PBS pH 7.4, 3 mg/mL BSA, 0.05% Tween 20; serial dilutions of the variants; steady-state fit
Conditions: both partners purified

Binder | Kd
ALM3 (antibody ligand mimetic 3) (antibody) chain 1: not shown chain 2: EIVLTQSPGTLSLSPGERATFSCRSSHSIRSRRVAWYQHKPGQAPRLVIHGVSNRASGISDRFSGSGSGTDFTLTITRVEPEDFALYYCQVYGASSYTFGQGTKLERKRTVAAPSVFIFPPSDEQLKSGTASVVCLLNNFYPREAKVQWKVDNALQSGNSQESVTEQDSKDSTYSLSSTLTLSKADYEKHKVYACEVTHQGLRSPVTKSFNRGEC | > 10000 nM
ALM4 (antibody ligand mimetic 4) (antibody) chain 1: not shown chain 2: EIVLTQSPGTLSLSPGERATFSCRSSHSIRSRRVAWYQHKPGQAPRLVIHGVSNRASGISDRFSGSGSGTDFTLTITRVEPEDFALYYCQVYGASSYTFGQGTKLERKRTVAAPSVFIFPPSDEQLKSGTASVVCLLNNFYPREAKVQWKVDNALQSGNSQESVTEQDSKDSTYSLSSTLTLSKADYEKHKVYACEVTHQGLRSPVTKSFNRGEC | 5600 nM
NRG1 fused with human serum albumin (ligand, UniProt Q02297-6 177-236, looked up, neuregulin 1 (NRG1) fused with HSA, control protein; Control protein; also called NRG1-HSA) SHLVKCAEKEKTFCVNGGECFMVKDLSNPSRYLCKCPNEFTGDRCQNYVMASFYKHLGIE | 460 nM
NRG1-MFc fusion protein (NRG1 EGF domain fused with monomeric Fc) (Fc fusion, human, neuregulin-1 beta (NRG1b) EGF domain, about 60 amino acids; numbers count on: the EGF domain (His2, Cys45); also called neuregulin-MFc; parental clone; source: HEK293FT, transient transfection, purified (protein A); not shown: monomeric Fc (MFc C4)) GTSHLVKCAEKEKTFCVNGGECFMVKDLSNPSRYLCKCPNEFTGDRCQNYVMASF | 640 nM
